The text below walks through data of patent US20090291088A1 (Biogen, published 2009).

The term EC50 denotes the concentration at which the effect is half-maximal. Higher therefore signals lower potency in that assay. Broadly, the koff is the first-order rate constant of dissociation. Higher therefore signals a short-lived complex. Usually kon stands for a measure of how fast the partners come together. The low end stands for slow association, the high end for fast association. What is called Kd is the concentration at which binding is half-saturated. Read a low Kd as tighter binding.

The target of experiment [1] is T1, human IGF-1R expressed on cells (human, UniProt P08069 31-1367).
T1 construct: On MCF-7 tumor cells or on 3T3/CHO transfectants; precursor is processed into alpha and beta subunits; Signal peptide 1-30 left out as stated; also called wild type IGF-1R; IGF-1R 3T3
As to the kind of experiment: flow cytometry, MCF-7 cells. Background: A flow cytometer gives signals particle by particle.

For another experiment, the target named is T2, human IGF-1R(1-903)-Fc (human, UniProt P08069 31-933).
T2 construct: Made by Biogen Idec; Multimerises through IGF-1R and Fc; also called hIGF-1R-Fc; IGF-1R-Fc; not shown: C-terminal human IgG1-Fc tag
Kind of experiment: SPR, Fab over captured hIGF-1R-Fc. The procedure: Experiments were performed on a Biacore 3000 set to 25° C. using HBS-EP (Biacore, Cat. No. BR-1001-88) as the running buffer. An anti-human IgG-Fc antibody (2C11 from Biogenesis, Cat. No. 5218-9850) was immobilized to saturation on a Biacore CM5 chip (Cat. No. BR-1000-14) surface by injection at 500 nM in HBS-EP buffer. mIGF-1R-Fc or hIGF-1R-Fc was captured on the chip surface by injecting 40 μL of 20 nM receptor at 3 μL/min. […] Dissociation of Fab was measured for ˜27 minutes. Fab was serially diluted from 25 to 0.4 nM to obtain concentration dependent kinetic binding curves. Regeneration of the surface chip between each injection series was performed using 3×10 μL injections of 100 mM glycine pH 2.0 at 60 μL/min. Each curve was double referenced using (1) data obtained from a CM5 chip surface devoid of the anti-IgG antibody 2C11 and (2) data from a primary injection of receptor followed by a secondary injection of HBS-EP buffer.

For experiment [2], the target named is T3, hIGF-1R-Fc mutant SD001 (Y28A) (human, UniProt P08069 31-933).
T3 construct: not shown: C-terminal human IgG1-Fc tag
As to the kind of experiment: SPR, M13-C06 Fab over captured mutant. As for the experimental part: (§1) After, completion of the receptor-Fc loading step, flow rates were elevated to 5 μl/min. […] At the end of each sensorgram, the flow rate was elevated to 30 μl/min and the chip surface was regenerated by 2×10 μL injections of 0.1 M glycine, pH 2.
(SPR reads the build-up and loss of mass on a sensor chip optically.)

The target in experiment [3] is T4, hIGF-1R-Fc mutant SD003 (T188F) (human, UniProt P08069 31-933).
T4 construct: not shown: C-terminal human IgG1-Fc tag
As to the kind of experiment: SPR, M13-C06 Fab over captured mutant. As for the experimental part:
as §1

Experiment [4] deals with T5, hIGF-1R-Fc mutant SD005 (A217T) (human, UniProt P08069 31-933).
T5 construct: not shown: C-terminal human IgG1-Fc tag
Kind of experiment: SPR, M13-C06 Fab over captured mutant. The procedure:
as §1

The target of experiment [5] is T6, hIGF-1R-Fc mutant SD007 (N237G) (human, UniProt P08069 31-933).
T6 construct: not shown: C-terminal human IgG1-Fc tag
Kind of experiment: SPR, M13-C06 Fab over captured mutant. As for the experimental part: as §1

Experiment [6] has as its target T7, hIGF-1R-Fc mutant SD010 (G271D) (human, UniProt P08069 31-933).
T7 construct: not shown: C-terminal human IgG1-Fc tag
As to the kind of experiment: SPR, M13-C06 Fab over captured mutant. As for the experimental part: as §1

For experiment [7], the target named is T8, hIGF-1R-Fc mutant SD012 (E303G) (human, UniProt P08069 31-933).
T8 construct: not shown: C-terminal human IgG1-Fc tag
As to the kind of experiment: SPR, M13-C06 Fab over captured mutant. As for the experimental part:
as §1

For experiment [8], the target named is T9, hIGF-1R-Fc mutant SD017 (I650S) (human, UniProt P08069 31-933).
T9 construct: not shown: C-terminal human IgG1-Fc tag
Kind of experiment: SPR, M13-C06 Fab over captured mutant. The procedure: as §1

The target in experiment [9] is T10, human IGF-1R(1-902)-His10 (human, UniProt P08069 31-932).
T10 construct: Cy5-labelled in tr-FRET; also called hIGF-1R-His10; IGF-1R-His
As to the kind of experiment: SPR, Fab over IGF-1R-10His captured by anti-His. The procedure: All surface plasmon resonance (SPR) experiments were performed on a Biacore 3000 set to 25° C. using HBS-EP (Biacore, Cat. No. BR-1001-88) as the running buffer. A biotin-labeled anti-HisTag antibody (biotin-PENTA-His, Qiagen Cat. No. 34440) was immobilized to saturation on a Biacore SA chip (Cat. No. BR-1000-32) surface by injection at 500 nM in HBS-EP buffer. […] Subsequent to IGF-1R injections, flow rates were increased to 20 μL/min. A second, 130 μL injection of anti-IGF-1R antibody or Fab was performed to investigate interactions with the receptor. Each antibody and Fab was serially diluted from 64 nM to 0.5 nM to obtain concentration dependent kinetic binding curves. Each injection series was regenerated using 3×10 μL injections of 10 mM Acetate, pH 4.0, at 20 μL/min. Each curve was double referenced using (1) data obtained from a streptavidin surface devoid of IGF-1R and (2) data from a primary injection of IGF-1R followed by a secondary injection of HBS-EP buffer. The concentration series for each antibody and Fab was fit to the 1:1 binding model provided within the BiaEvaluation software of the manufacturer.
To obtain discrete affinities, Fab fragments of each antibody were generated using papain digestion as described above.

B1: M13-C06 Fab (Fab, V domains shown)
VH: EVQLLESGGGLVQPGGSLRLSCAASGFTFSIYRMQWVRQAPGKGLEWVSGISPSGGTTWYADSVKGRFTISRDNSKNTLYLQMNSLRAEDTAVYYCARWSGGSGYAFDIWGQGTMVTVSS
VL: DIQMTQSPLSLSASVGDRVTITCQASRDIRNYLNWYQQKPGKAPKLLIYDASSLQTGVPSRFGGSGSGTDFSFTIGSLQPEDIATYYCQQFDSLPHTFGQGTKLEIK
notes: Human Fab from a phage library, kappa light chain
Regarding B1, the EC50 in [1] is 8.8 nM. In the experiment with human IGF-1R(1-903)-Fc, this molecule gave a koff of 0.000833 s⁻¹. In addition, the kon in the experiment with human IGF-1R(1-903)-Fc worked out at 852000 M⁻¹ s⁻¹. For the same molecule, the “Biacore Relative RUmax” value in experiment [2] stood at 0.6; in experiment [3], 1; in experiment [4], 0.9; in experiment [5] it was 1.3; in [6] it was 0.8; in [7] it was 0.3. The “Biacore Relative RUmax” value in experiment [8] is 2. Moreover, the Kd in experiment [9] was 1.3 nM.
